Source: publication PMC5922973, “Topoisomerase VI senses and exploits both DNA crossings and bends to facilitate strand passage” (eLife, 2018)

Target: T1, topo VI KGRR-AAA (Methanosarcina mazei, UniProt Q8PUB7;Q8PUB8 1-369;1-621, K186A;R188A;R189A)
T1 sequence 1: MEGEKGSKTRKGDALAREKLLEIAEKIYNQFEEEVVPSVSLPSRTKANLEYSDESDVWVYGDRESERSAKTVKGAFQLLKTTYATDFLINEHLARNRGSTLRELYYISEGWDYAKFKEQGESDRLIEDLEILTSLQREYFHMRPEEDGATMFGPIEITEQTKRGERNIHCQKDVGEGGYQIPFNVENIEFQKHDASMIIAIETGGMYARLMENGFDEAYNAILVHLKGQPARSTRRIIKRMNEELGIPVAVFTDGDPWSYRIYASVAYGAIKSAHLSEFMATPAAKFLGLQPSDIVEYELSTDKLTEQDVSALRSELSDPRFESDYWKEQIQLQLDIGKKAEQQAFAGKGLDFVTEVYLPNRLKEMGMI
T1 sequence 2: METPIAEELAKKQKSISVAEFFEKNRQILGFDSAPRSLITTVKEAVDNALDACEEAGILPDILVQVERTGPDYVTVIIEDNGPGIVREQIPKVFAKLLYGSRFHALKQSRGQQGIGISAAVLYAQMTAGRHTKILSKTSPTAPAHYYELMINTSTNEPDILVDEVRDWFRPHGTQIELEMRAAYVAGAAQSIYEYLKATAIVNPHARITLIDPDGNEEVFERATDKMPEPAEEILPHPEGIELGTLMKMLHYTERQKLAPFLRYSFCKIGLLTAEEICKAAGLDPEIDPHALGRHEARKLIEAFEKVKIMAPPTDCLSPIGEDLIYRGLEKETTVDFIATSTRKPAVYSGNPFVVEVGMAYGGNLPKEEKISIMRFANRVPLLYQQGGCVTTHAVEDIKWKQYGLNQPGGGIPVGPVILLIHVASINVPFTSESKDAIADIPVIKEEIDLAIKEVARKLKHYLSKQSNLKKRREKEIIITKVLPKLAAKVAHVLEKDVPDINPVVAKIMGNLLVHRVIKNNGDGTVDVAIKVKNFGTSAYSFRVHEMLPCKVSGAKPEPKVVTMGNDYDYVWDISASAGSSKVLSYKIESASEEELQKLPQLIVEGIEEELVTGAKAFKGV
Assay: fluorescence anisotropy; 10 mM Mg2+; ambiguous, poorly defined dFAmax; FA: 20 nM probe, 50 mM K-glutamate, 20 mM HEPES-KOH pH 7.5, 10 mM MgCl2, 5% glycerol, 1 mM TCEP, 0.1 mg/mL BSA; incubated on ice, read at ambient temperature; competition with 100 nM enzyme
Details: protein: recombinant; tags: N-terminal His6-TEV on Top6B, removed; chain copies: 2;2; label: 5'-FAM on S1; four-way Holliday junction, stacked-X, two GAAA-capped arms

B1: 16 x 20 bp stacked junction (structured_DNA)
DNA 1: CGAATACTCAGCTCAACCGAAAGGTTGAGCCTTCGCTCGAAAGAGCGAAGTACTCTTCCG
DNA 2: CGGAAGAGTATGAGTATTCG
- Kd: ~758 nM
